Measurements from paper doi:10.1101/2025.10.26.684595.

What was measured:
[1] = target: human PIEZO2 in the cryo-EM complexes with MDFIC and MDFIC2 (human) (UniProt Q9H5I5); experiment: cryo-EM structure
[2] = target: mouse PIEZO1 in the cryo-EM complex with mouse MDFI (mouse) (UniProt E2JF22); experiment: cryo-EM structure; conditions: remark: other sources report otherwise

| stoichiometry N [1] | stoichiometry N [2] | Substance |
| --- | --- | --- |
| 3 |  | human PIEZO2 in the cryo-EM complexes with MDFIC and MDFIC2, Q9H5I5 |
|  | 3 | mouse PIEZO1 in the cryo-EM complex with mouse MDFI, E2JF22 1-2547 |
